Measured values published in the supplement of paper PMC5998384.

Columns and labels:
HeLa Kyoto [1] = assay: solubility in G1/S (NP-40 vs SDS abundance) (log2 ratio); higher = more soluble; settings: cell cycle stage: G1/S
HeLa Kyoto [2] = assay: solubility change mitosis vs G1/S (difference of NP-40 vs SDS log2 ratios) (log2 ratio difference); higher = more soluble in mitosis
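For solubility change mitosis vs G1/S (difference of NP-40 vs SDS log2 ratios) in this document: synchronized HeLa Kyoto cells (double thymidine block for G1/S, nocodazole release for mitosis), protein amounts in NP-40 versus SDS lysates quantified by mass spectrometry, three biological replicates.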
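For solubility in G1/S (NP-40 vs SDS abundance) in this document: HeLa Kyoto cells arrested at G1/S by double thymidine block, proteins quantified by TMT10plex mass spectrometry in mild NP-40 versus SDS extracts, three biological replicates.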

CABIN1, sequence (chain, as listed by the source): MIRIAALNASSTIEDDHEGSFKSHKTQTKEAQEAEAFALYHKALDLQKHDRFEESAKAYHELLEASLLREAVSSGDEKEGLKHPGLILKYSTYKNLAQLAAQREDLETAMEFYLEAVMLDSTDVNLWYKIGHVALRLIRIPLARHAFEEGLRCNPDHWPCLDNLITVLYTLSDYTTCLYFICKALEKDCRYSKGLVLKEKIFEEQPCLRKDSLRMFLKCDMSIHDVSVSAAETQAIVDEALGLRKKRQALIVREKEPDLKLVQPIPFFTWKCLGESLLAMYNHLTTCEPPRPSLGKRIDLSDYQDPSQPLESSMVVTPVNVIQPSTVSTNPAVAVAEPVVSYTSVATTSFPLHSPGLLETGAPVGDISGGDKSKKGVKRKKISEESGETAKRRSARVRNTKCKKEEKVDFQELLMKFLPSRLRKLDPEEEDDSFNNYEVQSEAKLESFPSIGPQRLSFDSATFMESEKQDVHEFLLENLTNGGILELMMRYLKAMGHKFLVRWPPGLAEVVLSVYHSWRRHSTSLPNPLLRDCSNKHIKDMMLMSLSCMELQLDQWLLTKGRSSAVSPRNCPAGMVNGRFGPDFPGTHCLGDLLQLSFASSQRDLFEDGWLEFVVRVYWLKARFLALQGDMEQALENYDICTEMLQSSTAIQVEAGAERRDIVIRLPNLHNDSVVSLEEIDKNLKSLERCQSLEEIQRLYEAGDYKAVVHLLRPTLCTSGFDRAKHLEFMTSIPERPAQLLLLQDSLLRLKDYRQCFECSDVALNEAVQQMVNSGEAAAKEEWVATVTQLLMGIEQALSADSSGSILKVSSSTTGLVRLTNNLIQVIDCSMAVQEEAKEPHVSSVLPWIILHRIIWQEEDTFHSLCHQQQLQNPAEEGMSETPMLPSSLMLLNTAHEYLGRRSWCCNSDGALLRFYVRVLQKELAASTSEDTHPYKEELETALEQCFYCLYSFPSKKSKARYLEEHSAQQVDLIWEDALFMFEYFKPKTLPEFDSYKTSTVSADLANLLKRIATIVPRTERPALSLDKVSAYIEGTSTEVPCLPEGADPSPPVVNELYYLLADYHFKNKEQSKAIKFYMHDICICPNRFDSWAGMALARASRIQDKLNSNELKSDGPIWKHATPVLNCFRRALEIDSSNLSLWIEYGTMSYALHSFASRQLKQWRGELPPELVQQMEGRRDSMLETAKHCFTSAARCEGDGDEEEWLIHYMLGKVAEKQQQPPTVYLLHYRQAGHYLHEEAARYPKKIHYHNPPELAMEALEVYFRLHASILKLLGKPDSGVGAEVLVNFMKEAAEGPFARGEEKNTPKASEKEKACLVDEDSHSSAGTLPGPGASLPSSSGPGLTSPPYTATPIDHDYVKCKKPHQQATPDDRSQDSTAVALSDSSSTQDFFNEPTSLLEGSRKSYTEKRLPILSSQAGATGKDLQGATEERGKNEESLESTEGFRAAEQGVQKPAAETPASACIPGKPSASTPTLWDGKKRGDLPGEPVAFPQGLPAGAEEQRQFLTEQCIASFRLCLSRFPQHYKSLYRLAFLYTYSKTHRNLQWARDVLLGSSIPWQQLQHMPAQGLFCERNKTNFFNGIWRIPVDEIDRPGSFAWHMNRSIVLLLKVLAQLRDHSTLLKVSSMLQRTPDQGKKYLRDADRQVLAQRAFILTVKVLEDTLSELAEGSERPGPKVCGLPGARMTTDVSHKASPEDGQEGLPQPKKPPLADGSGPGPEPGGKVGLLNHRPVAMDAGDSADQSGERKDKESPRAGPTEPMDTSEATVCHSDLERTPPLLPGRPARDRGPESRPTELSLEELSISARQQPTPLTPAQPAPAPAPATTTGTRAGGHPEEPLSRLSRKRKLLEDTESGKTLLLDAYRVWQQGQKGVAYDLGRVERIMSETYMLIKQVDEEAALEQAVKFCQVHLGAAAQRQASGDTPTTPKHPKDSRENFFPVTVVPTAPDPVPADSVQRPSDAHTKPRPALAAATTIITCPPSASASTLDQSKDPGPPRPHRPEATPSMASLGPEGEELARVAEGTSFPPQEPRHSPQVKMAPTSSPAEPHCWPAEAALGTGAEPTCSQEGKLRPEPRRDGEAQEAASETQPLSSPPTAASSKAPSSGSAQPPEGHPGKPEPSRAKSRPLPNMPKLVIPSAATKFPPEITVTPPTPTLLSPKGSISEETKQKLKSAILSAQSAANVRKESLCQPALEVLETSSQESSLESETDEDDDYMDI
KLF4, sequence (chain, as listed by the source): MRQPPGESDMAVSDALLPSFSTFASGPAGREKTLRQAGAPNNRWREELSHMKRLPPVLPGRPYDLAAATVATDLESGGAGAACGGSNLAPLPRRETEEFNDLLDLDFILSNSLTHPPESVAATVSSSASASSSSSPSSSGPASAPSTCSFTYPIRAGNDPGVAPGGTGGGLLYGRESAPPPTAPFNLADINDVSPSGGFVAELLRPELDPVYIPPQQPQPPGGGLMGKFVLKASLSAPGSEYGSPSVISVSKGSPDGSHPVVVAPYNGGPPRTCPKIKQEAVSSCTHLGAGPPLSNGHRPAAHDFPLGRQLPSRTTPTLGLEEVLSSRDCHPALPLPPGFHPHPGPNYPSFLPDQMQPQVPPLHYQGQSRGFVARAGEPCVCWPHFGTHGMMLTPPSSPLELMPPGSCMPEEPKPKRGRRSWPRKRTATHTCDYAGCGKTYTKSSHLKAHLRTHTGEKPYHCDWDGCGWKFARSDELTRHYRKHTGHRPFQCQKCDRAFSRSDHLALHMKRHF
IFT140, sequence (chain, as listed by the source): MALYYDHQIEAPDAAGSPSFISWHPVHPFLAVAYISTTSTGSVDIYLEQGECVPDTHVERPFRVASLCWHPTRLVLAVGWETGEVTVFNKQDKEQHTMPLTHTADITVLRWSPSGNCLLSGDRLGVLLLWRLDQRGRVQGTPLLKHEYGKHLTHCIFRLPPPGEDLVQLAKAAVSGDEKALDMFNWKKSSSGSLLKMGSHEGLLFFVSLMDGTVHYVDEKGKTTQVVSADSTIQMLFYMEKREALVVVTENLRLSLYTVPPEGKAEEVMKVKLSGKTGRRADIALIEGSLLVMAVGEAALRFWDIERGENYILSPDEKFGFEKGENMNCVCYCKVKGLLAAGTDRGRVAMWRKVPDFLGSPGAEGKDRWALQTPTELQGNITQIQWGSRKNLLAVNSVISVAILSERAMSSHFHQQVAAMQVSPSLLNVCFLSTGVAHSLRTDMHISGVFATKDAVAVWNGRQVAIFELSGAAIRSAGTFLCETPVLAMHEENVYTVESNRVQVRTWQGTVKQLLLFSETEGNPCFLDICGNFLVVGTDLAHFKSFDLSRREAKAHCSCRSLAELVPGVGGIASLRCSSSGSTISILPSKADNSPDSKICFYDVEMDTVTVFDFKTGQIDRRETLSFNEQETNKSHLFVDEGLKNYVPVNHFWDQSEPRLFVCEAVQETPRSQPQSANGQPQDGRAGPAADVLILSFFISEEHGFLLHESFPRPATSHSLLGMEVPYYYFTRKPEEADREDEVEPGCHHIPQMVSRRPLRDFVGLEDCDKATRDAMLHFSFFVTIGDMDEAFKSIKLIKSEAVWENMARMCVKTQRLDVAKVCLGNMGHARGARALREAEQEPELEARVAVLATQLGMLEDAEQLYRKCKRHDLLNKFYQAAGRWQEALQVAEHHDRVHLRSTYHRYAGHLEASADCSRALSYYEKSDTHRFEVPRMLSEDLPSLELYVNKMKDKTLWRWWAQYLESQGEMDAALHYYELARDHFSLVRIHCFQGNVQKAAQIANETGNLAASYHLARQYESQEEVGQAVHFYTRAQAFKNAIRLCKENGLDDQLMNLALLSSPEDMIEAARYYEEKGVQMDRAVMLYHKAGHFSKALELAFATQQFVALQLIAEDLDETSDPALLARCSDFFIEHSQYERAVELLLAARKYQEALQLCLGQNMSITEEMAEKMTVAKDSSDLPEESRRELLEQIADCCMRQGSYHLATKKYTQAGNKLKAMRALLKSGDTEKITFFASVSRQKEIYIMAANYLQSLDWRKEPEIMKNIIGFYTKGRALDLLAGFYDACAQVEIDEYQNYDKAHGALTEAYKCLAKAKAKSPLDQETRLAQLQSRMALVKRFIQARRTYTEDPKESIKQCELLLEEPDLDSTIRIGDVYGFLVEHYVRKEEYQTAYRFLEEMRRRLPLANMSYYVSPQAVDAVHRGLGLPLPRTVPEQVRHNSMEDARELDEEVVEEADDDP
KCT2, sequence (chain, as listed by the source): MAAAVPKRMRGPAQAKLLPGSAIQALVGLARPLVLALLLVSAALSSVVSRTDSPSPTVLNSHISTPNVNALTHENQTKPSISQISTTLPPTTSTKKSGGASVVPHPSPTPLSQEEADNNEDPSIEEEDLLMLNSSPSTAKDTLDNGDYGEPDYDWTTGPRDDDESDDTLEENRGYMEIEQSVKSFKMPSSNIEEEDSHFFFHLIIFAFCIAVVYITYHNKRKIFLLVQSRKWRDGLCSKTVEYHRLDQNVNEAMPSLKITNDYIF

Row | Substance | solubility in G1/S (log2) (HeLa Kyoto [1]) | solubility change mitosis (log2) (HeLa Kyoto [2])
1 | MWCIVLFSLLAWVYAEPTMYGEILSPNYPQAYPSEVEKSWDIEVPEGYGIHLYFTHLDIELSENCAYDSVQIISGDTEEGRLCGQRSSNNPHSPIVEEFQVPYNKLQVIFKSDFSNEERFTGFAAYYVATDINECTDFVDVPCSHFCNNFIGGYFCSCPPEYFLHDDMKNCGVNCSGDVFTALIGEIASPNYPKPYPENSRCEYQIRLEKGFQVVVTLRREDFDVEAADSAGNCLDSLVFVAGDRQFGPYCGHGFPGPLNIETKSNALDIIFQTDLTGQKKGWKLRYHGDPMPCPKEDTPNSVWEPAKAKYVFRDVVQITCLDGFEVVEGRVGATSFYSTCQSNGKWSNSKLKCQPVDCGIPESIENGKVEDPESTLFGSVIRYTCEEPYYYMENGGGGEYHCAGNGSWVNEVLGPELPKCVPVCGVPREPFEEKQRIIGGSDADIKNFPWQVFFDNPWAGGALINEYWVLTAAHVVEGNREPTMYVGSTSVQTSRLAKSKMLTPEHVFIHPGWKLLEVPEGRTNFDNDIALVRLKDPVKMGPTVSPICLPGTSSDYNLMDGDLGLISGWGRTEKRDRAVRLKAARLPVAPLRKCKEVKVEKPTADAEAYVFTPNMICAGGEKGMDSCKGDSGGAFAVQDPNDKTKFYAAGLVSWGPQCGTYGLYTRVKNYVDWIMKTMQENSTPRED [C1S] | 0.0236 | -0.029
2 | MRRKGRCHRGSAARHPSSPCSVKHSPTRETLTYAQAQRMVEIEIEGRLHRISIFDPLEIILEDDLTAQEMSECNSNKENSERPPVCLRTKRHKNNRVKKKNEALPSAHGTPASASALPEPKVRIVEYSPPSAPRRPPVYYKFIEKSAEELDNEVEYDMDEEDYAWLEIVNEKRKGDCVPAVSQSMFEFLMDRFEKESHCENQKQGEQQSLIDEDAVCCICMDGECQNSNVILFCDMCNLAVHQECYGVPYIPEGQWLCRHCLQSRARPADCVLCPNKGGAFKKTDDDRWGHVVCALWIPEVGFANTVFIEPIDGVRNIPPARWKLTCYLCKQKGVGACIQCHKANCYTAFHVTCAQKAGLYMKMEPVKELTGGGTTFSVRKTAYCDVHTPPGCTRRPLNIYGDVEMKNGVCRKESSVKTVRSTSKVRKKAKKAKKALAEPCAVLPTVCAPYIPPQRLNRIANQVAIQRKKQFVERAHSYWLLKRLSRNGAPLLRRLQSSLQSQRSSQQRENDEEMKAAKEKLKYWQRLRHDLERARLLIELLRKREKLKREQVKVEQVAMELRLTPLTVLLRSVLDQLQDKDPARIFAQPVSLKEVPDYLDHIKHPMDFATMRKRLEAQGYKNLHEFEEDFDLIIDNCMKYNARDTVFYRAAVRLRDQGGVVLRQARREVDSIGLEEASGMHLPERPAAAPRRPFSWEDVDRLLDPANRAHLGLEEQLRELLDMLDLTCAMKSSGSRSKRAKLLKKEIALLRNKLSQQHSQPLPTGPGLEGFEEDGAALGPEAGEEVLPRLETLLQPRKRSRSTCGDSEVEEESPGKRLDAGLTNGFGGARSEQEPGGGLGRKATPRRRCASESSISSSNSPLCDSSFNAPKCGRGKPALVRRHTLEDRSELISCIENGNYAKAARIAAEVGQSSMWISTDAAASVLEPLKVVWAKCSGYPSYPALIIDPKMPRVPGHHNGVTIPAPPLDVLKIGEHMQTKSDEKLFLVLFFDNKRSWQWLPKSKMVPLGIDETIDKLKMMEGRNSSIRKAVRIAFDRAMNHLSRVHGEPTSDLSDID [BRD1] | -0.879 | 0.194
3 | MATVGAPRHFCRCACFCTDNLYVARYGLHVRFRGEQQLRRDYGPILRSRGCVSAKDFQQLLAELEQEVERRQRLGQESAARKALIASSYHPARPEVYDSLQDAALAPEFLAVTEYSVSPDADLKGLLQRLETVSEEKRIYRVPVFTAPFCQALLEELEHFEQSDMPKGRPNTMNNYGVLLHELGLDEPLMTPLRERFLQPLMALLYPDCGGGRLDSHRAFVVKYAPGQDLELGCHYDNAELTLNVALGKVFTGGALYFGGLFQAPTALTEPLEVEHVVGQGVLHRGGQLHGARPLGTGERWNLVVWLRASAVRNSLCPMCCREPDLVDDEGFGDGFTREEPATVDVCALT [OGFOD2] | 0.182 | 0.112
4 | MCCEKWSRVAEMFLFIEEREDCKILCLCSRAFVEDRKLYNLGLKGYYIRDSGNNSGDQATEEEEGGYSCGTAESHDSKGIGLDESELDSEAELMRSMGLPLQFGRITAHKDFEVSMNTRNKVKIKKKKHQKKYLDEIVQESWRKEYEEDDILASDDPSSIEQYENTRTYELQSKKDTETENPPVENTLSPKLEITEKWEKYWNEYGGGLLWQSWQEKHPGQALSSEPWNFPDTKEEWEQHYSQLYWYYLEQFQYWEAQGWTFDASQSCDTDTYTSKTEADDKNDEKCMKVDLVSFPSSPIMVDNDSSGTSDKDHSEILDGISNIKLNSEEVTQSQLDSCTSHDGHQQLSEVSSKRECPASGQSEPRNGGTNEESNSSGNTNTDPPAEDSQKSSGANTSKDRPHASGTDGDESEEDPPEHKPSKLKRSHELDIDENPASDFDDSGSLLGFKYGSGQKYGGIPNFSHRQVRYLEKNVKLKSKYLDMRRQIKMKNKHIFFTKESEKPFFKKSKILSKVEKFLTWVNKPMDEEASQESSSHDNVHDASTSSDSEEQDMSVKKGDDLLETNNPEPEKCQSVSSAGELETENYERDSLLATVPDEQDCVTQEVPDSRQAETEAEVKKKKNKKKNKKVNGLPPEIAAVPELAKYWAQRYRLFSRFDDGIKLDREGWFSVTPEKIAEHIAGRVSQSFKCDVVVDAFCGVGGNTIQFALTGMRVIAIDIDPVKIALARNNAEVYGIADKIEFICGDFLLLASFLKADVVFLSPPWGGPDYATAETFDIRTMMSPDGFEIFRLSKKITNNIVYFLPRNADIDQVASLAGPGGQVEIEQNFLNNKLKTITAYFGDLIRRPASET [TGS1] | 0.102 | 0.247
5 | KLF4 | -0.0723 | 0.0866
6 | MQLRKMQTVKKEQASLDASSNVDKMMVLNSALTEVSEDSTTGEELLLSEGSVGKNKSSACRRKREFIPDEKKDAMYWEKRRKNNEAAKRSREKRRLNDLVLENKLIALGEENATLKAELLSLKLKFGLISSTAYAQEIQKLSNSTAVYFQDYQTSKSNVSSFVDEHEPSMVSSSCISVIKHSPQSSLSDVSEVSSVEHTQESSVQGSCRSPENKFQIIKQEPMELESYTREPRDDRGSYTASIYQNYMGNSFSGYSHSPPLLQVNRSSSNSPRTSETDDGVVGKSSDGEDEQQVPKGPIHSPVELKHVHATVVKVPEVNSSALPHKLRIKAKAMQIKVEAFDNEFEATQKLSSPIDMTSKRHFELEKHSAPSMVHSSLTPFSVQVTNIQDWSLKSEHWHQKELSGKTQNSFKTGVVEMKDSGYKVSDPENLYLKQGIANLSAEVVSLKRLIATQPISASDSG [NFIL3] | 0.00864 | 0.104
7 | MGLEDEQKMLTESGDPEEEEEEEEELVDPLTTVREQCEQLEKCVKARERLELCDERVSSRSHTEEDCTEELFDFLHARDHCVAHKLFNNLK [UQCRH] | -0.528 | 0.641
8 | KCT2 | 0.0557 | -0.29
9 | MADSERLSAPGCWAACTNFSRTRKGILLFAEIILCLVILICFSASTPGYSSLSVIEMILAAIFFVVYMCDLHTKIPFINWPWSDFFRTLIAAILYLITSIVVLVERGNHSKIVAGVLGLIATCLFGYDAYVTFPVRQPRHTAAPTDPADGPV [PLP2] | -0.0955 | -0.163
10 | MGPKRRQLTFREKSRIIQEVEENPDLRKGEIARRFNIPPSTLSTILKNKRAILASERKYGVASTCRKTNKLSPYDKLEGLLIAWFQQIRAAGLPVKGIILKEKALRIAEELGMDDFTASNGWLDRFRRRHGVVSCSGVARARARNAAPRTPAAPASPAAVPSEGSGGSTTGWRAREEQPPSVAEGYASQDVFSATETSLWYDFLPDQAAGLCGGDGRPRQATQRLSVLLCANADGSEKLPPLVAGKSAKPRAGQAGLPCDYTANSKGGVTTQALAKYLKALDTRMAAESRRVLLLAGRLAAQSLDTSGLRHVQLAFFPPGTVHPLERGVVQQVKGHYRQAMLLKAMAALEGQDPSGLQLGLTEALHFVAAAWQAVEPSDIAACFREAGFGGGPNATITTSLKSEGEEEEEEEEEEEEEEGEGEEEEEEGEEEEEEGGEGEELGEEEEVEEEGDVDSDEEEEEDEESSSEGLEAEDWAQGVVEAGGSFGAYGAQEEAQCPTLHFLEGGEDSDSDSEEEDDEEEDDEDEDDDDDEEDGDEVPVPSFGEAMAYFAMVKRYLTSFPIDDRVQSHILHLEHDLVHVTRKNHARQAGVRGLGHQS [CENPB] | -0.711 | -0.105
11 | CABIN1 | -0.34 | 0.144
12 | MQRRSRGINTGLILLLSQIFHVGINNIPPVTLATLALNIWFFLNPQKPLYSSCLSVEKCYQQKDWQRLLLSPLHHADDWHLYFNMASMLWKGINLERRLGSRWFAYVITAFSVLTGVVYLLLQFAVAEFMDEPDFKRSCAVGFSGVLFALKVLNNHYCPGGFVNILGFPVPNRFACWVELVAIHLFSPGTSFAGHLAGILVGLMYTQGPLKKIMEACAGGFSSSVGYPGRQYYFNSSGSSGYQDYYPHGRPDHYEEAPRNYDTYTAGLSEEEQLERALQASLWDRGNTRNSPPPYGFHLSPEEMRRQRLHRFDSQ [RHBDD1] | -0.291 | -0.0234
13 | MAEIIQERIEDRLPELEQLERIGLFSHAEIKAIIKKASDLEYKIQRRTLFKEDFINYVQYEINLLELIQRRRTRIGYSFKKDEIENSIVHRVQGVFQRASAKWKDDVQLWLSYVAFCKKWATKTRLSKVFSAMLAIHSNKPALWIMAAKWEMEDRLSSESARQLFLRALRFHPECPKLYKEYFRMELMHAEKLRKEKEEFEKASMDVENPDYSEEILKGELAWIIYKNSVSIIKGAEFHVSLLSIAQLFDFAKDLQKEIYDDLQALHTDDPLTWDYVARRELEIESQTEEQPTTKQAKAVEVGRKEERCCAVYEEAVKTLPTEAMWKCYITFCLERFTKKSNSGFLRGKRLERTMTVFRKAHELKLLSECQYKQLSVSLLCYNFLREALEVAVAGTELFRDSGTMWQLKLQVLIESKSPDIAMLFEEAFVHLKPQVCLPLWISWAEWSEGAKSQEDTEAVFKKALLAVIGADSVTLKNKYLDWAYRSGGYKKARAVFKSLQESRPFSVDFFRKMIQFEKEQESCNMANIREYYERALREFGSADSDLWMDYMKEELNHPLGRPENCGQIYWRAMKMLQGESAEAFVAKHAMHQTGHL [UTP6] | -2.05 | 0.707
14 | IFT140 | -0.373 | 0.0597
15 | MPTWGARPASPDRFAVSAEAENKVREQQPHVERIFSVGVSVLPKDCPDNPHIWLQLEGPKENASRAKEYLKGLCSPELQDEIHYPPKLHCIFLGAQGFFLDCLAWSTSAHLVPRAPGSLMISGLTEAFVMAQSRVEELAERLSWDFTPGPSSGASQCTGVLRDFSALLQSPGDAHREALLQLPLAVQEELLSLVQEASSGQGPGALASWEGRSSALLGAQCQGVRAPPSDGRESLDTGSMGPGDCRGARGDTYAVEKEGGKQGGPREMDWGWKELPGEEAWEREVALRPQSVGGGARESAPLKGKALGKEEIALGGGGFCVHREPPGAHGSCHRAAQSRGASLLQRLHNGNASPPRVPSPPPAPEPPWHCGDRGDCGDRGDVGDRGDKQQGMARGRGPQWKRGARGGNLVTGTQRFKEALQDPFTLCLANVPGQPDLRHIVIDGSNVAMVHGLQHYFSSRGIAIAVQYFWDRGHRDITVFVPQWRFSKDAKVRESHFLQKLYSLSLLSLTPSRVMDGKRISSYDDRFMVKLAEETDGIIVSNDQFRDLAEESEKWMAIIRERLLPFTFVGNLFMVPDDPLGRNGPTLDEFLKKPARTQGSSKAQHPSRGFAEHGKQQQGREEEKGSGGIRKTRETERLRRQLLEVFWGQDHKVDFILQREPYCRDINQLSEALLSLNF [KHNYN] | 0.384 | -0.219
